This note sets out measurements from the supplement of paper PMC10567573.

Sequences and labels used below:
B1: VAMP4 (parent)
chain: FLRGPSGPRFGPRNDKIKHVQNQV
B2: HDAC6 (parent)
chain: QYMNEGELRVLADTYDSVYLHPNS
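Also: lentivirally expressed fusions sorted by FACS into six bins by GFP to DsRed ratio, PSI derived from sequencing read proportions per bin multiplied by bin number.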

The variants in one data set derive from B1. The data set is described as follows: protein stability index of a GFP-peptide fusion (GPS, HEK-293T) (PSI 1-6); higher = more stable. Conditions: c terminus: a fixed tail appended.
In the case of FLRGPSGPRFGPRNDKIHHVQNQV [K18H], the protein stability index was found to be 2.73.
Consider FLRGPSGPRFGPRNDKIMHVQNQV [K18M], for which the protein stability index is 2.27.
Turning to FLRGPSGPRFGPRNYKIKHVQNQV [D15Y], the protein stability index is 2.1.
On to FLRGPSGPRFGPRNLKIKHVQNQV [D15L], for which the protein stability index was found to be 2.17.
Still for that read-out and setting: as for FLRGPSGPRFGPRNKKIKHVQNQV [D15K], the figure is 2.23.
On to FLRGPSGPRFGPRNRKIKHVQNQV [D15R], for which the protein stability index amounted to 2.69.
Turning to FLRGPSGPRFGPRNFKIKHVQNQV [D15F], the protein stability index came to 2.01.
For the variant FLRGPSGPRFGPRNVKIKHVQNQV [D15V], the protein stability index is 2.85.
As for FLRGPSGPRFGPRNAKIKHVQNQV [D15A], the protein stability index is 2.6.
Regarding FLRGPSGPRFGPRNHKIKHVQNQV [D15H], the protein stability index stood at 3.02.
With FLRGPSGPRFGTRNDKIKHVQNQV [P12T], the protein stability index came out at 3.37.
Consider FLRGPSGPRFGVRNDKIKHVQNQV [P12V], for which the protein stability index came to 2.86.
Consider FLRGPSGPRFGQRNDKIKHVQNQV [P12Q], for which the protein stability index was 2.34.
Same read-out and setting: as for FLRGPSGPRFGRRNDKIKHVQNQV [P12R], the figure is 2.59.
Same read-out and setting: to FLRGPSGPRFGNRNDKIKHVQNQV [P12N] belongs 3.12; to FLRGPSGPRFGSRNDKIKHVQNQV [P12S], 3.27.
Consider FLRGPSGPRFGPRNDKIKHVQNRV [Q23R], for which the protein stability index came out at 2.87.
With FLRGPSGPRFGPRNDKIKHVQNNV [Q23N], the protein stability index turned out to be 2.98.
FLRGPSGPRFGPRNDKIKHVQNGV [Q23G]: the protein stability index was determined as 1.8.
As to FLRGPSGPRFGPRNDKIKYVQNQV [H19Y], the protein stability index came out at 1.93.
For the variant FLRGPSGPRFGPRNDKIKMVQNQV [H19M], the protein stability index amounted to 2.6.
Consider FLRGPSGPRFGPRNDKIKFVQNQV [H19F], for which the protein stability index was 1.8.
Turning to FLRGPSGPRFGPRNDKIKTVQNQV [H19T], the protein stability index was determined as 1.54.
On to FLRGPSGPRFGPRNDKIKSVQNQV [H19S], for which the protein stability index is 2.7.
In the case of FLRGPSGCRFGPRNDKIKHVQNQV [P8C], the protein stability index came out at 2.44.
For the variant FLRGPSGGRFGPRNDKIKHVQNQV [P8G], the protein stability index came to 2.41.
In the case of FLRGPSGDRFGPRNDKIKHVQNQV [P8D], the protein stability index was found to be 3.01.
On to FLRGPSGYRFGPRNDKIKHVQNQV [P8Y], for which the protein stability index is 2.47.
In the case of FLRGPSGLRFGPRNDKIKHVQNQV [P8L], the protein stability index was determined as 1.61.
For FLRGPSGQRFGPRNDKIKHVQNQV [P8Q], the protein stability index was determined as 1.96.
FLRGPSGIRFGPRNDKIKHVQNQV [P8I]: the protein stability index turned out to be 2.53.
In the case of FNRGPSGPRFGPRNDKIKHVQNQV [L2N], the protein stability index stood at 2.69.
FQRGPSGPRFGPRNDKIKHVQNQV [L2Q]: the protein stability index came out at 2.73.
The same measure, in the same setting: to FYRGPSGPRFGPRNDKIKHVQNQV [L2Y] belongs 2.61; to FGRGPSGPRFGPRNDKIKHVQNQV [L2G], 2.87; to FERGPSGPRFGPRNDKIKHVQNQV [L2E], 3.71.
With FTRGPSGPRFGPRNDKIKHVQNQV [L2T], the protein stability index is 2.99.
Take FVRGPSGPRFGPRNDKIKHVQNQV [L2V]: the protein stability index is 1.48.
Turning to FWRGPSGPRFGPRNDKIKHVQNQV [L2W], the protein stability index was 2.9.
Same read-out and setting: as for FLRGPSYPRFGPRNDKIKHVQNQV [G7Y], the figure is 1.96.
With FLRGPSNPRFGPRNDKIKHVQNQV [G7N], the protein stability index amounted to 2.74.
Still for that read-out and setting: as for FLRGPSCPRFGPRNDKIKHVQNQV [G7C], the figure is 2.94.
As to FLRGPSQPRFGPRNDKIKHVQNQV [G7Q], the protein stability index was 2.68.
On to FLRGPSMPRFGPRNDKIKHVQNQV [G7M], for which the protein stability index is 2.24.
Turning to FLRGPSRPRFGPRNDKIKHVQNQV [G7R], the protein stability index is 1.71.
As to FLRGPSEPRFGPRNDKIKHVQNQV [G7E], the protein stability index is 2.79.
With FLRGPSAPRFGPRNDKIKHVQNQV [G7A], the protein stability index worked out at 2.69.
Same read-out and setting: to FLRGPSGPRFNPRNDKIKHVQNQV [G11N] belongs 2.95; to FLRGPSGPRFAPRNDKIKHVQNQV [G11A], 2.75; to FLRGPSGPRFDPRNDKIKHVQNQV [G11D], 2.63.
With FLRGPSGPRFQPRNDKIKHVQNQV [G11Q], the protein stability index worked out at 2.78.
Take FLRGPSGPRFEPRNDKIKHVQNQV [G11E]: the protein stability index is 3.51.
With FLRGPSGPRFTPRNDKIKHVQNQV [G11T], the protein stability index stood at 2.18.
As for FLRGPSGPRFPPRNDKIKHVQNQV [G11P], the protein stability index was determined as 2.91.
Take FLRGPSGPRFSPRNDKIKHVQNQV [G11S]: the protein stability index worked out at 2.65.
As to FLRGPSGPRFFPRNDKIKHVQNQV [G11F], the protein stability index was 2.2.
On the same count and under the same terms, to FLRGPSGPRFGPRNDKIKHVQNQM [V24M] belongs 3.02; to FLRGPSGPRFGPRNDKIKHVQNQK [V24K], 3.46; to FLRGPSGPRFGPRNDKIKHVQNQP [V24P], 2.94.
In the case of FLRGPSGPRFGPRNDKIKHVQNQQ [V24Q], the protein stability index stood at 2.76.
On the same count and under the same terms, as for FLRGPSGPRFGPRNDKIKHVQNQD [V24D], the figure is 3.4; as for FLRGPSGPAFGPRNDKIKHVQNQV [R9A], 2.
As for FLRGPSGPLFGPRNDKIKHVQNQV [R9L], the protein stability index turned out to be 2.06.
On to FLRGPSGPTFGPRNDKIKHVQNQV [R9T], for which the protein stability index turned out to be 2.75.
For the variant FLRGPSGPEFGPRNDKIKHVQNQV [R9E], the protein stability index was determined as 3.
Regarding FLRGPSGPWFGPRNDKIKHVQNQV [R9W], the protein stability index was found to be 2.93.
Regarding FLRGPSGPHFGPRNDKIKHVQNQV [R9H], the protein stability index was 2.28.
As for FLRGPSGPVFGPRNDKIKHVQNQV [R9V], the protein stability index was found to be 2.18.
In the case of FLRGPSGPMFGPRNDKIKHVQNQV [R9M], the protein stability index was found to be 2.46.
On the same count and under the same terms, to FLRGPSGPPFGPRNDKIKHVQNQV [R9P] belongs 2.49.
Still for that read-out and setting: to FLRGPSGPQFGPRNDKIKHVQNQV [R9Q] belongs 2.93.

In a further data set the parent is B2. The description is as above. To be noted: c terminus: a fixed tail appended.
With QFMNEGELRVLADTYDSVYLHPNS [Y2F], the protein stability index came to 2.2.
On to QEMNEGELRVLADTYDSVYLHPNS [Y2E], for which the protein stability index is 2.9.
On to QAMNEGELRVLADTYDSVYLHPNS [Y2A], for which the protein stability index came to 1.43.
As for QIMNEGELRVLADTYDSVYLHPNS [Y2I], the protein stability index was 1.94.
Same read-out and setting: to QGMNEGELRVLADTYDSVYLHPNS [Y2G] belongs 3.27.
On to QDMNEGELRVLADTYDSVYLHPNS [Y2D], for which the protein stability index came out at 3.19.
In the case of QKMNEGELRVLADTYDSVYLHPNS [Y2K], the protein stability index stood at 3.46.
On the same count and under the same terms, to QHMNEGELRVLADTYDSVYLHPNS [Y2H] belongs 2.13.
The same measure, in the same setting: to EYMNEGELRVLADTYDSVYLHPNS [Q1E] belongs 1.93.
In the case of YYMNEGELRVLADTYDSVYLHPNS [Q1Y], the protein stability index was 1.69.
Take WYMNEGELRVLADTYDSVYLHPNS [Q1W]: the protein stability index is 2.21.
For the variant IYMNEGELRVLADTYDSVYLHPNS [Q1I], the protein stability index came out at 1.83.
In the case of GYMNEGELRVLADTYDSVYLHPNS [Q1G], the protein stability index turned out to be 1.89.
On to DYMNEGELRVLADTYDSVYLHPNS [Q1D], for which the protein stability index came to 3.16.
Turning to FYMNEGELRVLADTYDSVYLHPNS [Q1F], the protein stability index came to 2.53.
For the variant CYMNEGELRVLADTYDSVYLHPNS [Q1C], the protein stability index turned out to be 1.52.
Regarding SYMNEGELRVLADTYDSVYLHPNS [Q1S], the protein stability index stood at 2.04.
In the case of RYMNEGELRVLADTYDSVYLHPNS [Q1R], the protein stability index is 1.43.
Still for that read-out and setting: as for MYMNEGELRVLADTYDSVYLHPNS [Q1M], the figure is 1.66; as for TYMNEGELRVLADTYDSVYLHPNS [Q1T], 1.84; as for PYMNEGELRVLADTYDSVYLHPNS [Q1P], 2.63.
AYMNEGELRVLADTYDSVYLHPNS [Q1A]: the protein stability index came out at 1.69.
Consider KYMNEGELRVLADTYDSVYLHPNS [Q1K], for which the protein stability index worked out at 1.92.
